Laboratory results taken from publication PMC4331651, “The use of SMALPs as a novel membrane protein scaffold for structure study by negative stain electron microscopy” (Biochimica et Biophysica Acta, 2015).

Columns and labels:
[1] = molecular target: T1, AcrB (Escherichia coli, UniProt P31224); assay: fluorescence polarization titration of R6G with AcrB SMALP; assay type: binding
T1 construct: full-length AcrB with C-terminal octahistidine tag (kept); expressed in E. coli, extracted with styrene maleic acid co-polymer into SMALPs, cobalt resin purified; 110 kDa band; homotrimer (~360 kDa)
Text: fluorescence polarization titration of R6G with AcrB SMALP on AcrB | measure the Kd value of rhodamine 6G binding.

[2] = molecular target: Escherichia coli multidrug transporter AcrB bearing a C-terminal octahistidine tag, in SMA lipid particles (SMALPs) (Escherichia coli) (UniProt P31224); assay: negative stain electron microscopy (single particle, 3D reconstruction); protomers to trimer; AcrB SMALPs ~20 ug/mL on carbon-coated grids, 1% uranyl acetate; 6884 singlet particles; refined with C1 and with C3 symmetry
[3] = molecular target: Escherichia coli multidrug transporter AcrB bearing a C-terminal octahistidine tag, in SMA lipid particles (SMALPs) (Escherichia coli) (UniProt P31224); assay: AUC; protomers to trimer; sedimentation velocity, 0.5 mg/mL AcrB-SMALP, 50 mM Tris pH 8 with 10 mM or 500 mM NaCl, 40,000 rpm, 20 h, 4 °C, c(s) analysis

T1 sequence (P31224 whole entry): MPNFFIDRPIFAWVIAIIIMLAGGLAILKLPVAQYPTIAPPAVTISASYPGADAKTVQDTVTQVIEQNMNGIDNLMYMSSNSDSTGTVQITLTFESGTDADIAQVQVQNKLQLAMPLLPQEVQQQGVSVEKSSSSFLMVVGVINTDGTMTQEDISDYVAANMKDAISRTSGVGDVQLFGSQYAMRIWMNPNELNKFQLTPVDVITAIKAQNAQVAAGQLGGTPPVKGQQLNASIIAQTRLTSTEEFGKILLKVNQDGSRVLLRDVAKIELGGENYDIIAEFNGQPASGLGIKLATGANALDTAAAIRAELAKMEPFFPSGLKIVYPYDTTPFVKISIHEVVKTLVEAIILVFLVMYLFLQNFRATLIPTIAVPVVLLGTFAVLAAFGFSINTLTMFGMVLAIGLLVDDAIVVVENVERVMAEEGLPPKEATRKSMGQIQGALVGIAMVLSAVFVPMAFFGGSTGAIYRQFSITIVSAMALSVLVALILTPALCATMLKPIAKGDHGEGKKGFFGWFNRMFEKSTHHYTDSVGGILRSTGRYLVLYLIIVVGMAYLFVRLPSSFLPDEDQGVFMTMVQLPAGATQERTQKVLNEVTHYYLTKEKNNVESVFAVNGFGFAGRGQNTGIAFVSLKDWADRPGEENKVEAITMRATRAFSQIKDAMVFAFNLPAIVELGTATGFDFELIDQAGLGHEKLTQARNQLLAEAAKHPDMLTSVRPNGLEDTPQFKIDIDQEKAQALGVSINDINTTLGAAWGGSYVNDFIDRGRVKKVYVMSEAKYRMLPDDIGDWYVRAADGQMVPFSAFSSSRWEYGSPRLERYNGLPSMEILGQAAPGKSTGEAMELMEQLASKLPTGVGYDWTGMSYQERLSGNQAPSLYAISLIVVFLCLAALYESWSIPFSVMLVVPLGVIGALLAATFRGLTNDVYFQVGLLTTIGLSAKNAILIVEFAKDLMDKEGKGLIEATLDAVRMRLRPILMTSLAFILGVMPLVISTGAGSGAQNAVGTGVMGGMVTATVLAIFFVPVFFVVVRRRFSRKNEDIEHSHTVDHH

stoichiometry N [2]	stoichiometry N [3]	Compound	Kd [1] [nM]
–	–	CCN=c1cc2oc3cc(NCC)c(C)cc3c(-c3ccccc3C(=O)OCC)c-2cc1C [rhodamine 6G]	52 ± 6.6
3	3	Escherichia coli multidrug transporter AcrB bearing a C-terminal octahistidine tag, in SMA lipid particles (SMALPs) (from UniProt P31224 1-1049) (natural protein)	–
